Assay results as given in the Immune Epitope Database (IEDB).

Experiments:
HLA-C*07:02 = experiment: IEDB peptide-MHC binding, purified MHC/direct/fluorescence; filed as Kd, often an IC50 or EC50 that approximates it; ≥ and ≤ were set here for values at or beyond the usual limits of such assays; conditions: source organism: Canis lupus familiaris
HLA-C*04:01 = experiment: as above; conditions: source organism: Canis lupus familiaris
HLA-B*15:17 [1] = experiment: IEDB peptide-MHC binding, purified MHC/competitive/fluorescence; filed as Kd, often an IC50 or EC50 that approximates it; ≥ and ≤ were set here for values at or beyond the usual limits of such assays
HLA-B*08:01 [2] = experiment: as above
HLA-B*15:01 = experiment: IEDB peptide-MHC binding, purified MHC/direct/fluorescence; filed as Kd, often an IC50 or EC50 that approximates it; ≥ and ≤ were set here for values at or beyond the usual limits of such assays
HLA-A*11:01 = experiment: as above
HLA-B*15:09 [3] = experiment: as above
HLA-B*27:05 = experiment: as above
HLA-B*40:01 = experiment: as above
HLA-B*57:01 [4] = experiment: as above
HLA-B*39:01 [5] = experiment: as above
HLA-B*48:01 = experiment: as above
HLA-B*38:01 = experiment: as above
HLA-A*69:01 = experiment: as above
HLA-B*51:01 = experiment: as above
HLA-A*26:01 [6] = experiment: as above; conditions: source organism: Influenza A virus(A/swine/Shandong/fNY/2003(H9N2))
HLA-A*02:01 = experiment: as above
HLA-B*58:01 = experiment: as above
HLA-A*03:01 = experiment: as above
HLA-B*46:01 = experiment: as above
HLA-B*07:02 = experiment: as above
HLA-A*01:01 = experiment: as above
HLA-A*31:01 [7] = experiment: as above
HLA-B*18:01 = experiment: as above
HLA-A*24:02 = experiment: as above; conditions: source organism: Influenza A virus (A/G.H/HK/793.1/02 (H5N1))
HLA-B*08:01 [8] = experiment: as above
HLA-B*44:02 = experiment: as above; conditions: source organism: Influenza A virus (A/G.H/HK/793.1/02 (H5N1))
HLA-A*02:03 = experiment: IEDB peptide-MHC binding, purified MHC/competitive/fluorescence; filed as Kd, often an IC50 or EC50 that approximates it; ≥ and ≤ were set here for values at or beyond the usual limits of such assays; conditions: source organism: Influenza A virus (A/swine/Italy/1521/98(H1N2))
HLA-B*15:17 [9] = experiment: IEDB peptide-MHC binding, purified MHC/direct/fluorescence; filed as Kd, often an IC50 or EC50 that approximates it; ≥ and ≤ were set here for values at or beyond the usual limits of such assays
HLA-A*02:06 = experiment: IEDB peptide-MHC binding, purified MHC/competitive/fluorescence; filed as Kd, often an IC50 or EC50 that approximates it; ≥ and ≤ were set here for values at or beyond the usual limits of such assays; conditions: source organism: Orthomarburgvirus marburgense
HLA-A*68:02 = experiment: as above; conditions: source organism: Orthomarburgvirus marburgense
HLA-B*15:09 [10] = experiment: as above
HLA-B*57:01 [11] = experiment: as above; conditions: source organism: Orthomarburgvirus marburgense
HLA-B*39:01 [12] = experiment: as above; conditions: source organism: Orthomarburgvirus marburgense
HLA-A*26:02 = experiment: as above; conditions: source organism: Orthomarburgvirus marburgense
HLA-A*26:01 [13] = experiment: as above; conditions: source organism: Orthomarburgvirus marburgense
HLA-C*08:02 = experiment: IEDB peptide-MHC binding, purified MHC/direct/fluorescence; filed as Kd, often an IC50 or EC50 that approximates it; ≥ and ≤ were set here for values at or beyond the usual limits of such assays; conditions: source organism: Orthomarburgvirus marburgense
HLA-B*08:02 = experiment: as above; conditions: source organism: Ravn virus - Ravn, Kenya, 1987
HLA-A*24:03 = experiment: as above; conditions: source organism: Marburg virus - Musoke, Kenya, 1980
HLA-A*23:01 = experiment: as above; conditions: source organism: Marburg virus - Musoke, Kenya, 1980
HLA-A*30:01 = experiment: IEDB peptide-MHC binding, purified MHC/competitive/fluorescence; filed as Kd, often an IC50 or EC50 that approximates it; ≥ and ≤ were set here for values at or beyond the usual limits of such assays; conditions: source organism: Vibrio cholerae O1 biovar El Tor str. N16961
HLA-A*31:01 [14] = experiment: as above; conditions: source organism: Vibrio cholerae O1 biovar El Tor str. N16961
[15] = source organism: Influenza A virus H3N2
[16] = source organism: Influenza A virus (A/Wisconsin/4755/1994(H1N1))
[17] = source organism: Influenza A virus(A/swine/Shandong/fNY/2003(H9N2))
[18] = source organism: Influenza A virus (A/G.H/HK/793.1/02 (H5N1))
[19] = source organism: Influenza A virus (A/swine/Korea/S190/2004(H9N2))
[20] = source organism: Orthomarburgvirus marburgense
[21] = source organism: Marburg virus - Musoke, Kenya, 1980
[22] = source organism: Vibrio cholerae O1 biovar El Tor str. N16961
[23] = source organism: Vibrio cholerae V52
[24] = source organism: Vibrio cholerae

HYNAFHWAI was tested, and the Kd (HLA-C*07:02) was 0.047 µM and the Kd (HLA-C*04:01) was no less than 20 µM.
ITKEKKEEL gave a Kd (HLA-B*15:17 [1]; [15]) of no less than 20 µM, a Kd (HLA-B*08:01 [2]; [15]) of 4.81 µM and a Kd (HLA-B*15:01; [16]) of no less than 20 µM. The Kd (HLA-A*11:01; [16]) was no less than 20 µM, the Kd (HLA-B*15:09 [3]; [17]) was no less than 20 µM and the Kd (HLA-B*27:05; [16]) was no less than 20 µM. For the same sequence, the Kd (HLA-B*40:01; [16]) was no less than 20 µM, the Kd (HLA-B*57:01 [4]; [16]) was no less than 20 µM and the Kd (HLA-B*39:01 [5]; [17]) was no less than 20 µM. The Kd (HLA-B*48:01; [16]) was no less than 20 µM, the Kd (HLA-B*38:01; [17]) was no less than 20 µM and the Kd (HLA-A*69:01; [16]) was no less than 20 µM. For the same sequence, the Kd (HLA-B*51:01; [16]) was no less than 20 µM, the Kd (HLA-A*26:01 [6]) was no less than 20 µM and the Kd (HLA-A*02:01; [16]) was no less than 20 µM. For the same sequence, the Kd (HLA-B*58:01; [16]) was no less than 20 µM, the Kd (HLA-A*03:01; [16]) was no less than 20 µM and the Kd (HLA-B*46:01; [16]) was no less than 20 µM. It also gave a Kd (HLA-B*07:02; [16]) of no less than 20 µM, a Kd (HLA-A*01:01; [16]) of no less than 20 µM and a Kd (HLA-A*31:01 [7]; [16]) of no less than 20 µM. It also gave a Kd (HLA-B*18:01; [16]) of no less than 20 µM.
For RRKTNLYGF, the Kd (HLA-B*15:01; [18]) was no less than 20 µM, the Kd (HLA-A*24:02) was no less than 20 µM and the Kd (HLA-A*11:01; [18]) was no less than 20 µM. For the same sequence, the Kd (HLA-B*15:09 [3]; source organism: Influenza A virus (A/Taiwan/2/2006(H1N1))) was no less than 20 µM, the Kd (HLA-B*27:05; source organism: Influenza A virus (A/Puerto Rico/8/34/Mount Sinai(H1N1))) was 0.021 µM and the Kd (HLA-B*40:01; [18]) was no less than 20 µM. The Kd (HLA-B*08:01 [8]; [18]) was no less than 20 µM, the Kd (HLA-A*02:01; [18]) was no less than 20 µM and the Kd (HLA-B*58:01; [18]) was no less than 20 µM. The Kd (HLA-A*03:01; [18]) was no less than 20 µM, the Kd (HLA-B*46:01; [18]) was no less than 20 µM and the Kd (HLA-B*44:02) was no less than 20 µM. For the same sequence, the Kd (HLA-B*07:02; [18]) was no less than 20 µM, the Kd (HLA-A*01:01; [18]) was no less than 20 µM and the Kd (HLA-B*18:01; [18]) was no less than 20 µM.
WIPKRNRSI was tested, and the Kd (HLA-A*02:03) was no less than 20 µM, the Kd (HLA-B*15:01; [19]) was no less than 20 µM and the Kd (HLA-A*11:01; [19]) was no less than 20 µM. For the same sequence, the Kd (HLA-B*15:09 [3]; [15]) was no less than 20 µM, the Kd (HLA-B*15:17 [9]; [19]) was no less than 20 µM and the Kd (HLA-B*27:05; [19]) was no less than 20 µM. The Kd (HLA-B*40:01; [19]) was no less than 20 µM, the Kd (HLA-B*57:01 [4]; [19]) was no less than 20 µM and the Kd (HLA-B*39:01 [5]; [15]) was no less than 20 µM. For the same sequence, the Kd (HLA-B*48:01; [19]) was no less than 20 µM, the Kd (HLA-B*38:01; [15]) was no less than 20 µM and the Kd (HLA-A*69:01; [19]) was no less than 20 µM. The Kd (HLA-B*08:01 [8]; [15]) was 0.018 µM, the Kd (HLA-A*02:01; [19]) was no less than 20 µM and the Kd (HLA-B*58:01; [19]) was no less than 20 µM. The Kd (HLA-A*03:01; [19]) was no less than 20 µM, the Kd (HLA-B*46:01; [19]) was no less than 20 µM and the Kd (HLA-B*07:02; [19]) was 0.644 µM. The Kd (HLA-A*01:01; [19]) was no less than 20 µM, the Kd (HLA-A*31:01 [7]; [19]) was no less than 20 µM and the Kd (HLA-B*18:01; [19]) was no less than 20 µM.
Sequence YLAPSYRNF has a Kd (HLA-A*02:06) of no less than 20 µM, a Kd (HLA-A*68:02) of 3.22 µM and a Kd (HLA-B*15:09 [10]; [20]) of no less than 20 µM. For the same sequence, the Kd (HLA-B*15:17 [1]; [20]) was 3.98 µM, the Kd (HLA-B*57:01 [11]) was no less than 20 µM and the Kd (HLA-B*39:01 [12]) was no less than 20 µM. The Kd (HLA-A*26:02) was 0.0042 µM, the Kd (HLA-A*26:01 [13]) was 5.13 µM and the Kd (HLA-C*08:02) was no less than 20 µM. It also gave a Kd (HLA-B*08:02) of no less than 20 µM, a Kd (HLA-A*11:01; [21]) of no less than 20 µM and a Kd (HLA-A*24:03) of 0.0165 µM. It also gave a Kd (HLA-A*69:01; [21]) of no less than 20 µM, a Kd (HLA-B*58:01; source organism: Ravn virus - Ravn, Kenya, 1987) of 0.43 µM and a Kd (HLA-B*07:02; [21]) of no less than 20 µM. It also gave a Kd (HLA-A*01:01; [21]) of no less than 20 µM, a Kd (HLA-A*31:01 [7]; [21]) of no less than 20 µM and a Kd (HLA-B*18:01; [21]) of no less than 20 µM. It also gave a Kd (HLA-A*23:01) of 0.023 µM.
Work on YLKKGRLSL yielded a Kd (HLA-A*30:01) of 1.49 µM, a Kd (HLA-B*15:09 [10]; [22]) of no less than 20 µM and a Kd (HLA-B*08:01 [2]; [22]) of 0.0532 µM. For the same sequence, the Kd (HLA-A*31:01 [14]) was no less than 20 µM, the Kd (HLA-B*15:01; [23]) was 0.053 µM and the Kd (HLA-A*11:01; [24]) was no less than 20 µM. For the same sequence, the Kd (HLA-B*15:17 [9]; [24]) was no less than 20 µM, the Kd (HLA-B*27:05; [24]) was no less than 20 µM and the Kd (HLA-B*40:01; [24]) was no less than 20 µM. It also gave a Kd (HLA-B*57:01 [4]; [24]) of no less than 20 µM, a Kd (HLA-B*39:01 [5]; [23]) of no less than 20 µM and a Kd (HLA-B*48:01; [24]) of no less than 20 µM. It also gave a Kd (HLA-A*69:01; [24]) of no less than 20 µM, a Kd (HLA-B*51:01; [24]) of no less than 20 µM and a Kd (HLA-B*58:01; [24]) of no less than 20 µM. The Kd (HLA-A*03:01; [24]) was no less than 20 µM, the Kd (HLA-B*46:01; [24]) was 5.06 µM and the Kd (HLA-B*07:02; [24]) was 0.123 µM. For the same sequence, the Kd (HLA-A*01:01; [24]) was no less than 20 µM and the Kd (HLA-B*18:01; [24]) was no less than 20 µM.
